This is an account of results in US12428627B2, “Mutant p-hydroxyphenylpyruvate dioxygenase, and coding nucleic acid and use thereof” (Qingdao Kingagroot Chemical Compound Co., Ltd., priority 2018, dated 2025).

One series deals with rice HPPD (OsHPPD). Description: Color reaction of recombinant E. coli expressing wild-type or mutant rice HPPD, cultured in 96-well plate in medium containing an HPPD-inhibiting herbicide and tyrosine. In kind it is cell-based, Oryza sativa. Also on record: key to relative resistance to Tembotrione / relative resistance to Benzuofucaotong metabolic product / relative resistance to Huanbifucaotong / relative resistance to Topramezone / relative resistance to Mesotrione / resistance to Tembotrione / resistance to Benzucfucaotong metabolic product / resistance to Huanbifucaotong / resistance to Topramezone / resistance to Mesotrione: The more the plus sign “+”, the deeper the color and the higher the resistance/tolerance as compared to the wild type. The text has this: The rice full-length OsHPPD enzyme has 446 amino acids and its amino acid sequence is set forth in SEQ ID NO: 2, wherein the amino acids 1-50 are considered to constitute a signal peptide which is responsible for directing into chloroplast (Siehl et al. Plant Physiol. 2014 November; 166(3): 1162-1176). Therefore, from the amino acid at the 51-position to the amino acid at the […], a saturated random mutation was made for each amino acid. This was achieved by performing a bridge PCR by using a primer containing a coding sequence of an amino acid to be mutated into NNK and another suitable conventional primer. In NNK, N represented A/T/G/C and K represented G/T, and the NNK codon could encode any one of 20 amino acids or terminators. Accordingly, this was a saturated mutation. Please see: Kille S. Acevedo-Rocha C G, Parra L P, Zhang Z G, Opperman D J, Reetz M T, Acevedo J P (2013) Reducing codon redundancy and screening effort of combinatorial protein libraries created by saturation mutagenesis. ACS Synth Biol 2(2):83-92; Directed Evolution Library Creation: methods and protocols 2nd ed. Edited by Elizabeth M. J. Gillam, Janine N. Copp and David F. Ackerley New York, NY United States: Springer, 2014. doi:10.1007/978-1-4939-1053-3. A large number of mutants would be produced. The mutant was cloned into a linearized pET-44a vector and transformed into E. co/i, which was cultivated by using a 96-well plate in a 2×YT culture solution containing an HPPD-inhibiting herbicide (such as 1-2 μM tembotrione) and a substrate tyrosine (1 g/L) in a shaker at 28° C. and 150 rpm for 24 hours for expression, and then the mutants were rapidly screened out according to their color browning. By using the method, 10 single amino acid mutants, A103S, H141R, H141 K, H141T, A165V, V191I, R220K, G342D, D370N and K410I, were screened out. The color reaction of these resistant mutants in the presence of tembotrione and the metabolic product of benzuofucaotong relative to that of the wild type was as shown in FIG. 1.
Similarly, the color reaction of these mutants in the presence of the other three HPPD-inhibiting herbicides huanbifucaotong, topramezone and mesotrione were determined, see FIGS. 2 and 3. The resistance/tolerance of each of the mutants to the five herbicides was roughly estimated on the basis of color changes thereof and the results were shown in Table 1. The more the plus sign “+”, the deeper the color and the higher the resistance/tolerance as compared to the wild type.
HPPD-inhibiting herbicides inhibited HPPD enzymatic activity. When tyrosine was converted to 4-hydroxyphenylpyruvate (HPP) under the action of tyrosine transaminase, the inactivated HPPD was unable to oxidize 4-hydroxyphenylpyruvate into homogentisic acid (HGA). HGA was dark brown. Therefore, if an HPPD mutant was resistant to or tolerant to an herbicide, after expressed in E. coli, the mutant could also oxidize 4-hydroxyphenylpyruvate into homogentisic acid, whereby dark brown appeared. Therefore, E. coli was cultured in a 2×YT culture medium containing a HPPD-inhibiting herbicide and a substrate tyrosine using a 96-well plate to express HPPD, and these mutants were rapidly screened according to their color changes. • (1) Preparation of 2×YT culture medium (1 g/L L-Tyr, 0.1 mM IPTG, 0.01 mM MnCl2 and 100 mg/L ampicillin were added). • (2) 0.1 mL of the above medium was added to each well of a 96-well plate, and the expression clones of OsHPPD wild type or mutant (OsHPPD Mut) from the E. coli plate obtained by the above transformation were subjected to liquid culture in the 96-well plate. HPPD inhibitors having a final concentration of 1 μM-20 μM were added according to different selected agents, for example, the final concentration of tembotrione was 1.7 μM while mesotrione was 10 μM. […]

In a further series the test system is OsHPPD. The series is described as follows: HPPD enzyme activity assay: Km, Kcat and Kcat/Km of OsHPPDs. In kind it is biochemical, Oryza sativa. Conditions: substrate 4-HPP. The protocol: The rice OsHPPD protein and homogentisate 1,2-dioxygenase (HGD) were obtained by heterologously expressed in E. coli wherein the gene was inserted into the pET 15b expression vector and expressed in the BL21 (DE3) expression strain, and purified by the Ni-NTA resin. • (1) The HPPD open reading frame (ORF) of the positive clone was cloned into the pET-15b vector to form a 6His-HPPD expression vector, and transformed into the BL21 (DE3) cell. The expression strain was inoculated in 10 mL of 2×YT culture medium, and cultivated overnight on a shaker at 37° C. and 200 rpm. The 10 mL of the culture was inoculated in 1 L of 2×YT culture medium and cultivated until the OD600 reached 0.6-0.8, cooled to a temperature of 16° C., and subjected to induced-expression with 0.2 mM IPTG (isopropyl thiogalactoside) overnight. The strains were collected by centrifugation at 2800×g. • (2) The collected strains were re-suspended with the buffer A (50 mM Tris pH 8.0, 500 mM NaCl, 20 mM imidazole), to which PMSF (phenylmethanesulfonyl fluoride) at the final concentration of 1 mM and 250 μL of a protease inhibitor cocktail (i.e., a mixture of multiple protease inhibitors), and mixed. The cells were broken by ultrasound in ice-bath (40% total power, work for 3 seconds/6 seconds interval, 2×30 minutes (Ningbo Scientz Biotechnology Co., Ltd., Ningbo, China)), and centrifuged at 12000 rpm at 4° C. for 30 minutes; and the supernatant was filtered with a 0.22 μm filter membrane. • (3) Purification with the Ni-NTA column: the supernatant was in contact with the Ni-NTA resin, then rinsed with a buffer A containing 50 mM imidazole to remove the impurities, and finally, eluted with an elution buffer containing 400 mM imidazole. • (4) The approximate purity of the protein of interest was analyzed by SDS-PAGE. The eluates containing of the protein of interest were combined and concentrated by an ultrafiltration device (10 kDa molecular weight cut-off, Amicon Ultra). The solution was replaced with a solution containing 20 mM Tris-HCl and having a pH of 7.5 for at least 3 times to desalt. The total protein concentration was determined by the BCA method.
• 1. The activity of a HPPD enzyme was determined by detecting the conversion of 4-hydroxyphenylpyruvate (4-HPP) to homogentisic acid (HGA) catalyzed by the HPPD enzyme and the conversion of HGA to maleylacetoacetate (MAA) catalyzed by homogentisate dioxygenase. […] 6 μl of 4-hydroxyphenylpyruvate (4-HPP) having a concentration that was as 50 times as the final concentration of the substrate were added to an ELSA plate, and then 294 μL of hydroxyethylpiperazine ethanesulfonic acid (HEPES) with a final concentration of 25 mM and pH of 7, 2 mM of Vitamin C, 10 mM FeSO4, 50 nM homogentisate dioxygenase and 5 to 240 nM HPPD enzyme were added thereto at one time. The final concentration of reaction substrate 4-HPP usually ranged from 1 to 100 μM. • 3. The absorbance changes of the reaction wells at 318 nm were continuously monitored by a UV ELISA detector (ReadMax 1900 photoabsorption type full-wavelength microplate reader) (Shanghai). • 4. Determination of Km, Kcat and Kcat/Km of OsHPPDs
Vmax is the maximum catalytic reaction rate achievable by enzymatic catalysis. The Michaelis constant Km is the concentration of a substrate required when the enzyme catalyzed the reaction to achieve half of the maximum rate (Vmax). The Km value is a constant and independent of the enzyme concentration, and altered as substrate type, reaction temperature, pH, and ionic strength changed. […] is a catalytic constant of an enzyme and referred to the number of substrate molecules that could be catalyzed by an enzyme molecule or enzyme active center per second. KCat/Km represents the catalytic efficiency of enzyme. It could be seen from the data in the table that the catalytic efficiency of most HPPD mutants was enhanced.

B1: G342D: single-site mutant rice HPPD (protein, listed as Oryza sativa)
chain: MPPTPTPTATTGAVSAAAAAGENAGFRLVGHRRFVRANPRSDRFQALAFHHVELWCADAASAAGRFAFALGAPLAARSDLSTGNSAHASLLLRSASVAFLFTAPYGGDHGVGADAATTASIPSFSPGAARRFAADHGLAVHAVALRVADAADAFRASVAAGARPAFQPADLGGGFGLAEVELYGDVVLRFVSHPDGADAPFLPGFEGVSNPGAVDYGLRRFDHVVGNVPELAPVAAYISGFTGFHEFAEFTAEDVGTAESGLNSVVLANNAETVLLPLNEPVHGTKRRSQIQTYLDHHGGPGVQHIALASDDVLGTLREMRARSAMGGFEFLAPPPPNYYDDVRRRAGDVLSEEQINECQELGVLVDRDDQGVLLQIFTKPVGDRPTFFLEMIQRIGCMEKDESGQEYQKGGCGGFGKGNFSELFKSIEEYEKSLEAKQAPTVQGS
modifications: The amino acid sequence of Wild-Type rice HPPD protein (OsHPPD _WT)
With B1, the “color change compared with wild type” value in the series with rice HPPD (OsHPPD) (tembotrione and metabolic product of benzuofucaotong, FIG. 1) is recorded as “obviously deeper than that of the wild type”.

B2: N338S/G342D/R346C (protein)
chain: MPPTPTPTATTGAVSAAAAAGENAGFRLVGHRRFVRANPRSDRFQALAFHHVELWCADAASAAGRFAFALGAPLAARSDLSTGNSAHASLLLRSASVAFLFTAPYGGDHGVGADAATTASIPSFSPGAARRFAADHGLAVHAVALRVADAADAFRASVAAGARPAFQPADLGGGFGLAEVELYGDVVLRFVSHPDGADAPFLPGFEGVSNPGAVDYGLRRFDHVVGNVPELAPVAAYISGFTGFHEFAEFTAEDVGTAESGLNSVVLANNAETVLLPLNEPVHGTKRRSQIQTYLDHHGGPGVQHIALASDDVLGTLREMRARSAMGGFEFLAPPPPSYYDDVRRCAGDVLSEEQINECQELGVLVDRDDQGVLLQIFTKPVGDRPTFFLEMIQRIGCMEKDESGQEYQKGGCGGFGKGNFSELFKSIEEYEKSLEAKQAPTVQGS
Turning to B2, the “resistance ranking in color reaction” value with rice HPPD (OsHPPD) (compound 101) is given as “highest resistance”.

B3: H141R/G342D/G419F: mutant rice HPPD (protein)
chain: MPPTPTPTATTGAVSAAAAAGENAGFRLVGHRRFVRANPRSDRFQALAFHHVELWCADAASAAGRFAFALGAPLAARSDLSTGNSAHASLLLRSASVAFLFTAPYGGDHGVGADAATTASIPSFSPGAARRFAADHGLAVRAVALRVADAADAFRASVAAGARPAFQPADLGGGFGLAEVELYGDVVLRFVSHPDGADAPFLPGFEGVSNPGAVDYGLRRFDHVVGNVPELAPVAAYISGFTGFHEFAEFTAEDVGTAESGLNSVVLANNAETVLLPLNEPVHGTKRRSQIQTYLDHHGGPGVQHIALASDDVLGTLREMRARSAMGGFEFLAPPPPNYYDDVRRRAGDVLSEEQINECQELGVLVDRDDQGVLLQIFTKPVGDRPTFFLEMIQRIGCMEKDESGQEYQKGGCGGFGKFNFSELFKSIEEYEKSLEAKQAPTVQGS
As for B3, in the series with OsHPPD, the Michaelis constant (Km) came to 7.9 µM.

B4: H141R/G342D/K418P: mutant rice HPPD (protein)
chain: MPPTPTPTATTGAVSAAAAAGENAGFRLVGHRRFVRANPRSDRFQALAFHHVELWCADAASAAGRFAFALGAPLAARSDLSTGNSAHASLLLRSASVAFLFTAPYGGDHGVGADAATTASIPSFSPGAARRFAADHGLAVRAVALRVADAADAFRASVAAGARPAFQPADLGGGFGLAEVELYGDVVLRFVSHPDGADAPFLPGFEGVSNPGAVDYGLRRFDHVVGNVPELAPVAAYISGFTGFHEFAEFTAEDVGTAESGLNSVVLANNAETVLLPLNEPVHGTKRRSQIQTYLDHHGGPGVQHIALASDDVLGTLREMRARSAMGGFEFLAPPPPNYYDDVRRRAGDVLSEEQINECQELGVLVDRDDQGVLLQIFTKPVGDRPTFFLEMIQRIGCMEKDESGQEYQKGGCGGFGPGNFSELFKSIEEYEKSLEAKQAPTVQGS
As to B4, the Michaelis constant (Km) in the series on OsHPPD was 30.6 µM.

B5: 103: single-site mutant rice HPPD, A103S (protein)
chain: MPPTPTPTATTGAVSAAAAAGENAGFRLVGHRRFVRANPRSDRFQALAFHHVELWCSDAASAAGRFAFALGAPLAARSDLSTGNSAHASLLLRSASVAFLFTSPYGGDHGVGADAATTASIPSFSPGAARRFAADHGLAVHAVALRVADAADAFRASVAAGARPAFQPADLGGGFGLAEVELYGDVVLRFVSHPDGADAPFLPGFEGVSNPGAVDYGLRRFDHVVGNVPELAPVAAYISGFTGFHEFAEFTAEDVGTAESGLNSVVLANNAETVLLPLNEPVHGTKRRSQIQTYLDHHGGPGVQHIALASDDVLGTLREMRARSAMGGFEFLAPPPPNYYDGVRRRAGDVLSEEQINECQELGVLVDRDDQGVLLQIFTKPVGDRPTFFLEMIQRIGCMEKDESGQEYQKGGCGGFGKGNFSELFKSIEEYEKSLEAKQAPTVQGS
modifications: The amino acid sequence of rice HPPD mutant (OsHPPD_A103S)
notes: single-site mutant rice HPPD, A103S
As to B5, the “relative resistance to Huanbifucaotong” value with rice HPPD (OsHPPD) (Table 1, single-site mutants, estimated from color change, wild type = +) was “+”.
